Test results taken from patent publication US6475806.

Target: antibody to hCG
Assay: competition: unlabelled hCG displacing hCG-I^125 from the antibody to hCG

IC50: 10 nM
Substance: hCG (from UniProt P01215 25-116; P0DN86 21-165) (ligand)
